In patent US20240239878A1 (SHANGHAI QILU PHARMACEUTICAL RESEARCH AND DEVELOPMENT CENTRE, published 2024):
Where two headings read alike, the source gives them in different places.

T1: human DLL3 on SHP-77 cells (human, UniProt Q9NYJ7 27-618)
T1 construct: also called DLL3-expressing cells (SHP-77)
T1 sequence: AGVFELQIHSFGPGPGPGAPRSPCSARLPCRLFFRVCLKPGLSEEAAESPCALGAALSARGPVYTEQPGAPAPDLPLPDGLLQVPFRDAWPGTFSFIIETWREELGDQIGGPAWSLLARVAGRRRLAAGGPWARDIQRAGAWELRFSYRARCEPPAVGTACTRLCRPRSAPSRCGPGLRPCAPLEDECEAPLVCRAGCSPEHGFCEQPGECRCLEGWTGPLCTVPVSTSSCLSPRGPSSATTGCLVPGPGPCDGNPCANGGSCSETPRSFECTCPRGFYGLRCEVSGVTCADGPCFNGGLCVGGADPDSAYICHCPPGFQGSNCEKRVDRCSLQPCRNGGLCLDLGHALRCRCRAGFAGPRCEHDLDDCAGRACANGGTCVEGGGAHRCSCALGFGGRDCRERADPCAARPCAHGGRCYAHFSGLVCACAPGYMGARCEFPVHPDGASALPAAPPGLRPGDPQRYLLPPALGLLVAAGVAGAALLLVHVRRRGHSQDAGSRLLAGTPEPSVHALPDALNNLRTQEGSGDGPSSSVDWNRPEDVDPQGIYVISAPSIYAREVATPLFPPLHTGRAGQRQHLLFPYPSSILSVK

T2: Cynomolgus monkey DLL3 on HEK293 cells (HEK293-cyno DLL3) (Cynomolgus monkey, UniProt Q9NYJ7 27-618 (human entry))
T2 chain: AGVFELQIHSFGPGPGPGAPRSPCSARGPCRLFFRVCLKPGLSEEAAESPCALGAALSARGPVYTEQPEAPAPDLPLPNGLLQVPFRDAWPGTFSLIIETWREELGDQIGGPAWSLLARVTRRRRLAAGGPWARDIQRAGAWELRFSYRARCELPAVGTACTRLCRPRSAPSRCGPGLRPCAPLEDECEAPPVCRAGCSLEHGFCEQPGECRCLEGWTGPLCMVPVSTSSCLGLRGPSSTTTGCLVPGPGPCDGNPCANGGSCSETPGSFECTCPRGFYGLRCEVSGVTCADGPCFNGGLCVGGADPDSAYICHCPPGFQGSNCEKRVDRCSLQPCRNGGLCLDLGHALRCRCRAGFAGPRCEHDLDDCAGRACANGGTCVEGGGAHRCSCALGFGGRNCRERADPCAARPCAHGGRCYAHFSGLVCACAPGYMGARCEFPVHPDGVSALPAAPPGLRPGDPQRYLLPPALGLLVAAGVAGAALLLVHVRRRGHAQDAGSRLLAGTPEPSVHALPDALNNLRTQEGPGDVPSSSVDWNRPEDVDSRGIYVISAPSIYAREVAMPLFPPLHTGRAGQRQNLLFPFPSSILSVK

T3: human DLL3 antigen protein (Kactus Biosystems, Cat. No. DLL-HM103) (human, UniProt Q9NYJ7 27-492)
T3 sequence: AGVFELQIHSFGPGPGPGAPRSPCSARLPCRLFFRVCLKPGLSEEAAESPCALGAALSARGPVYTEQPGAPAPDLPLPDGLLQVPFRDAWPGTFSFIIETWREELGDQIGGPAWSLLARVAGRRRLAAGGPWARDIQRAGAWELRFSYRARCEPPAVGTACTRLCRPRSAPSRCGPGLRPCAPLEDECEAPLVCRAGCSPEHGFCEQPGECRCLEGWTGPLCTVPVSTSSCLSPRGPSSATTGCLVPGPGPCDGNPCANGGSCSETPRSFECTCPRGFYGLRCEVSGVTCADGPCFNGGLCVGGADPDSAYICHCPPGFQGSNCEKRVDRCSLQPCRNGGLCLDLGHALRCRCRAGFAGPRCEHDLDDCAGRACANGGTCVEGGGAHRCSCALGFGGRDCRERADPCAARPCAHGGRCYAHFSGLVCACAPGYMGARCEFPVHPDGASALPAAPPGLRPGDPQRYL


How the values were obtained:
[1] = target: T1, human DLL3 on SHP-77 cells; experiment: flow cytometry, SHP-77 cells
Experimental: (§1) Monoclonal selection was performed, and the expression level of DLL3 protein in the monoclonal cells were identified by flow cytometry. The culture was expanded and stored in storage for later use. SHP-77 and HEK293-cyno DLL3 cells were cultured. The culture medium for SHP-77 cells were RPMI1640+10% FBS, and the culture medium for HEK293 cyno DLL3 cells were DMEM+10% FBS+200 μg/ml Hygromycin. The cells were cultured in a T75 cell culture flask at a 37° ° C. in a 5% CO₂ incubator. When using cells, they are washed with sterile DPBS, digested with 0.25% trypsin EDTA for about 5 minutes, and then stopped with a complete medium.
(§2) The digested cells were centrifuged at 1000 rpm for 5 min at room temperature. The supernatant was discarded and the cells were resuspended in 100 μL of 1% BSA (in PBS). The cells were counted and adjusted to a cell density of 1E6/m. The dilute cells were seeded in a 96-well round-bottom culture plate (corning 3799), and centrifuged at 1500 rpm for 5 min at 4° C. The supernatant was discarded and the cells were stored at 4° C. until use. Antibody samples to be tested were diluted with 1% BSA (in PBS) at a starting concentration of 100 nM, downwards by a 10-fold gradient for 7 concentrations. The cells were resuspended with the diluted antibody at 100 μL/well and incubated for 1 hour at 4° C. The cells were centrifuged at 1500 rpm for 5 minutes at 4° C. and the supernatant was discarded. The cells were resuspended and washed with 160 μL of 1% BSA (in PBS), centrifuged at 1500 rpm for 5 minutes at 4° C. The supernatant was discarded. The secondary antibody (goat anti human IgG Fc PE) was diluted 1:200 with 1% BSA (in PBS) according to the manufacturer's instructions and the cells were resuspended with the diluted secondary antibody. 100 μL/well, and incubated for 0.5 h at 4° C. The cells were centrifuged at 1500 rpm for 5 minutes at 4° C. and the supernatant was discarded. The cells were resuspended and washed with 160 μL of 1% BSA (in PBS), centrifuged at 1500 rpm for 5 minutes at 4° C. The supernatant was discarded. The cells were resuspended in 100 μL of 1% BSA (in PBS), and filtered across a 300 mesh gauze. The mean fluorescence intensity of the PE channels was measured by flow cytometry.

[2] = target: T1, human DLL3 on SHP-77 cells; experiment: flow cytometry, SHP-77 cells; remark: listed apart in the source
Experimental: (§3) SHP-77 and HEK293-cyno DLL3 cells were cultured. The culture medium for SHP-77 cells were RPMI1640+10% FBS, and the culture medium for HEK293 cyno DLL3 cells were DMEM+10% FBS+200 μg/ml Hygromycin. The cells were cultured in a T75 cell culture flask at a 37° C. 5% CO₂ incubator. When using cells, they are washed with sterile DPBS, digested with 0.25% trypsin EDTA for about 5 minutes, and then stopped with a complete medium.
as §2, with “antibody,” for “antibody.”
(§4) The analyzed mean fluorescence intensity was imported into Graphpad to analyze the median-binding concentration (hereinafter referred to as EC50) of antibody and cell and the top mean fluorescence intensity (Top MFI).

[3] = target: T2, Cynomolgus monkey DLL3 on HEK293 cells …; experiment: flow cytometry, HEK293-cyno DLL3 cells
Experimental: as §1, §2

[4] = target: T2, Cynomolgus monkey DLL3 on HEK293 cells …; experiment: flow cytometry, HEK293-cyno DLL3 cells
Experimental: as §3
as §2, with “antibody,” for “antibody.”
as §4

[5] = target: T1, human DLL3 on SHP-77 cells; experiment: flow cytometry, SHP-77 cells; remark: listed apart in the source
Experimental: SHP-77 cells were cultured. The culture medium for SHP-77 cells was RPMI1640+10% FBS. The cells were cultured in a T75 cell culture flask at a 37° C. 5% CO₂ incubator. When using cells, they are washed with sterile DPBS, digested with 0.25% trypsin EDTA for about 5 minutes, and then stopped with a complete medium.
as §2, with “plated” for “seeded”, “antibody,” for “antibody.”, “µL/well,” for “μL/well,”
as §4

[6] = target: T3, human DLL3 antigen protein (Kactus …); experiment: SPR (Biacore 8K), antibody captured on anti-human Fc, DLL3 in solution
Experimental: The affinity and kinetic properties of the humanized anti-DLL3 antibody to human DLL3 were analyzed using a Biacore 8K instrument. CM5 chips were activated with EDC and NHS, followed by immobilization of anti-human Fc murine mAb and blocked with ethanolamine.
Human DLL3 was diluted two-fold serially to serial concentrations (100 nM-0.39 nM) and associated for 90 s and dissociated for 600 s at a flow rate of 50 μL/min.
After completion of each round of the experiment, the captured antibody was removed together with the antigen by washing with a 3M MgCl₂ solution at a flow rate of 30 μL/min for 30 s to complete the regeneration of the chip. The raw data were analyzed using Biacore Insight Evaluation Software (3.0.12.15655) software and fitted with a (1:1) Langmuir model with.

EC50 [1] [nM]	Top MFI [1] [MFI]	EC50 [2] [nM]	Top MFI [2] [MFI]	EC50 [3] [nM]	Top MFI [3] [MFI]	EC50 [4] [nM]	Top MFI [4] [MFI]	EC50 [5] [nM]	Top MFI [5] [MFI]	Kd [6] [nM]	koff [6] [s⁻¹]	kon [6] [M⁻¹ s⁻¹]	Binder
0.374	763	0.396	782	0.897	175	2.08	179	–	–	–	–	–	DLL3-276 camelid-derived anti-DLL3 chimeric antibody (antibody, human IgG1, V domains shown) VH: QVQLVESGGGSVQAGGSLNLSCATSGSTASTTYMGWFRQAPGKGREGVAIIYTARDNPWYANSVKGRFIISQDNAKKTLYLQMNTLKPEDTATYYCAATLANPTRTAWGQGTLVTVSS
0.092	886	0.114	935	0.073	220	1.38	232	–	–	–	–	–	DLL3-12 camelid-derived anti-DLL3 chimeric antibody (antibody, human IgG1, V domains shown) VH: QVQLVESGGGLVQPGESLRLSCAGSGFAFSSYDMHWVRQAPGKDFEWVSSISRDGRGPRYADFVKGRFTISKDNGRNMLYLQLNSLEIEDTAMYYCSKGYPIMGGTTQGTQVTVSS
–	–	–	–	–	–	–	–	1.35	1520	0.811	0.000178	219000	H-46A5A4 mouse hybridoma-derived humanized anti-DLL3 antibody (antibody, V domains shown) VH: QVQLVQSGAEVKKPGASVKVSCKASGYTFTDHTIHWVRQAPGQGLEWMGYIYPRDGYTMYNEKFKGRVTMTRDTSTSTVYMELSSLRSEDTAVYYCARAFHALDYWGQGTLVTVSS VL: DIQMTQSPSSLSASVGDRVTITCSASQGISNYLNWYQQKPGKAPKLLIYYTSSLHSGVPSRFSGSGSGTDFTFTISSLQPEDIATYYCQQYSKLPYTFGGGTKLEIK
